By stoichiometry N is commonly meant the number of molecules, sites or subunits per partner or assembly.

Drawing on article PMC10794598, this text covers stoichiometry N for two substances.

Assay [1] concerns the target NB-RBD (ER-retained receptor-binding domain of the SARS-CoV-2 S protein expressed transiently in N. benthamiana) (SARS-CoV-2) (UniProt P0DTC2). Description: non-reducing PAGE Western blot. (In western blotting, separated proteins are transferred to a membrane and probed.)
Assay [2] deals with BY2-RBD (ER-retained receptor-binding domain of the SARS-CoV-2 S protein expressed stably in Nicotia (SARS-CoV-2) (UniProt P0DTC2)). Briefly: non-reducing PAGE Western blot.

For “NB-RBD (ER-retained receptor-binding domain of the SARS-CoV-2 S protein expressed transiently in N. benthamiana) (from UniProt P0DTC2 319-541) (domain or fragment)”, the stoichiometry N in assay [1] was 4.
In turn, “BY2-RBD (ER-retained receptor-binding domain of the SARS-CoV-2 S protein expressed stably in Nicotia (from UniProt P0DTC2 319-541) (domain or fragment)” yielded a stoichiometry N in assay [2] of 4.
